Our source for the protein production values is a protein production outcome set (Wang et al. 2014).

This data set can be described thus: label from the status in PepcDB records.
For “MAEEAKAKGNAAFSSGDFTTAINHFTEAIALAPTNHVLFSNRSAAHASLHQYAEALSDAKETIKLKPYWPKGYSRLGAAHLGLNQFELAVTAYKKGLDVDPTNEALKSGLADAEASVARSRAAPNPFGDAFQGPEMWTKLTSDPSTRGFLQQPDFVNMMQEIQKNPSSLNLYLKDQRVMQSLGVLLNVKFRPPPPQGDEAEVPESDMGQSSSNEPEVEKKREPEPEPEPEVTEEKEKKERKEKAKKEKELGNAAYKKKDFETAIQHYSTAIEIDDEDISYLTNRAAVYLEMGKYNECIEDCNKAVERGRELRSDYKMVARALTRKGTALTKMAKCSKDYEPAIEAFQKALTEHRNPDTLKRLNDAERAKKEWEQKQYFDPKLGDEEREKGNDFFKEQKYPEAIKHYTEAIKRNPNDHKAYSNRAASYTKLGAMPEGLKDAEKCIELDPTFSKGYSRKAAVQFFLKEYDNAMETYQAGLEHDPSNQELLDGVKRCVQQINKANRGDLTPEELKERQAKGMQDPEIQNILTDPVMRQVLSDLQENPSAAQKHMQNPMVMNKIQKLISAGIVQMK”, the protein production result was “failed”. Then “MNMNITYISIYKTSLPVLVSLLMEYLIGFTDTAYLGRVGETELAASAIAGTYYMIIYMIGFGFSIGAQILIAQYNGNQQYKEAGKILSQGILFLLIIAVIVILFSSIISPIILKSIIDSESVLQAVLQYLDWRIYGFFFSFTIIMFRAFYIGIIHTSALMLNSITMVAINVILNYILIFGALGIPVLGISGAAIASVISEAVAVIHFIIYTQKNVSSCKYGLKRRITIDCTILKKILSISIWMMLQHGLVFGSWFVFFITMEHFGERSLAITNIVRNISSFLFLFVQAFASVVSSLVGNLIGENKGNSILYVCKKVIFLCYMTILPIMVLFLFFPSSTLRIYSDNTVLVFEAIPTLKVMLTSYLIAVPTFVFFSAVSGIGHAVASLLIAFISLVVYIVYVETISHFSSSVPLLWTSEHIYFSCVFILSLYHIHHSWMSFINQDKKLTTNIS”, with “failed”; and “MADSSNKKKAASHESKKSNMEIMFSGSDSLTKRERRKKKQLIARSVGFALIGIEVIALIIFLAALFKLNMIPAKYMAMLIGILLLITVYNVLSQFTKAHWVGKVLAVLLAVVMFVGSSYIGKANSVISNIAGVTTKTDTFSLVVLATDPATGVEATKNYTFGYNKINNKDMAESLIQEVNTTLGTNVKTRTYDNWTNIINALYNNEVKVIVFNESNRAMLEEQFTDFEEKTKVIYTKTYTTQIKENVVNKNTATESFTIYVSGNDDYGAISANGRSDVNIVATFNPKTRQVLMVSTPRDYWVPVDTLSTDSNGKAVTGYEKLTHAGNYGVDSSISTLESLYGVDVDYYVKVNFTGAVGVIDALGGITINSDVKFTNGEDAAPVAYNFVVGPNECDGEKALAFCRERQAFSDGDNQRGRNQMAAIEGMIDKATSTAILTQYNKVLDAVSGLIATNMPDSAISNLVKAQINDPTGWNIMSYSVSGTGATKTGQLFGIVGMSVIEPDYSTVNTAIELMSKVRNGEVFDIDQFLEDKALESGTTQAR”, with “failed”; and “MGPPERPSLGWTPKEADMQSGPQPDEWSSGWKPGDGGAAPLPLSPALSFLLLFPLASALQPTPLPFPELRLVGGPSRCRGRLEVMHSGSWGSVCDDDWDVVDANVVCRQLGCGLALPVPRPLTFGQGRGPIFLDNVECRGQEASLSECGSRGWGVHNCFHYEDVAVLCDEFLHTQPPARKVLTSIAPPTALQNGRGEGSVRLAGGASPCQGRVEILHGGLWGTVCDDDWGLPDAAVVCRQLGCGAALAATTNAFFGYGTGHILLDNVHCEGGEPRLAACQSLGWGVHNCGHHEDAGVLCAATGVGALPSRDTIRFTTAAWASGKKSGRLRLVGGPSPCRGRVEVLYAGGWGTVCDDDWDFADARVACREAGCGPALGATGLGHFGYGRGPVLLDNVGCTGTEARLSDCFHLGWGQHNCGHHEDAGALCAGEAVESDKEAAQAEQAGLRAHKRGSVHARTNNMGPEELGLQVQQDGSETTRMPSPRPRDGHLRLASGTHRCEGRVELFLGQQWGTVCDDAWDLRAAIVLCRQLGCGQALAALGEAHFGPGRGPILLDNVKCRGDESTLLLCSHIRWDVHNCDHSEDASVLCQPL”, with “failed”.

For the sequence “MNLDALVSWSRAQFALTAMYHWLFVPLTLGLGVIMAIVETIYYRNGKPEWKRYAQFWQKLFGINFAIGVATGIILEFEFGTNWSNYSLFVGDIFGAPLAIEGILAFFMEATFIAVMFFGWNKVSKGFHLSATWLTIIGASLSAVWILIANAWMQEPVGMTFNPDTMRNEMTDFWALVFSSTAINKFWHTISSCWTLGSVFALGVCGIYLLRKDDKHKDFALKNIKIIAPFGLAASLITAFTGDTSAYNVAQKQPMKLAAMEALYDSGQTDKDGLTADGKGLPLSLFGILNPAKETPQDDKEAFLFNVSVPRVLSVLGTRNPSGYVPGINNILEGGYVKADGTTAIPVDSMMQRGRRAIMALNDYSKAKQAGDMEAALQHKSVIDENFPYFGYSYIQHKNDIVPPVGLTYYSFRIMVGLGMLFILLFLMAWLLSFKPEKFSKMRWFHMIAIVCMPLAWVASQSGWIVAEVGRQPWTIQDLLPVQAAVSKLEAGSVIITFFVFLVLFSALLVAELNIMRKAIKKGPETE”, the protein production result is listed as “failed”. Turning to “MKTIRLWDLPTRLFHWLLVIAVVGAVATVKLGAGWMAWHERFGLAVVGLLAFRVVWGLVGSTYARFSQFISGPGAMIRYLRGQWQGAGHNPLGAWSVLLLLGLFGFQAVTGLFANDEIAFNGPLYRLVSSGWSDTLSSWHRLMEWGLYAVVALHVLAVLFYTHVRKDNLIKPMVTGRKQVQSSELKDASGGGWLAMIIALAIAVAVVWAASGGLIPPPPPPPQNLGW”, the protein production entry is listed as “failed”. Then “MRRFLAGLWLLGLALGQGLVLPFEGPKGYGLAQAFAQGLKAPPPTLLALLLPDLPWRGSYELAGGLYTKAGARLARAATGADWVLLGREEEGGLRLILAREGGSEERLFKTPELAWLWLQGKGLAPRLSPLPTPGLPEERLRALAQGEAPDPLHRSALDLKEGRGSGLLEGLLPERLLLLWQGKLPRAYEAFRLLAEGKREEALALAEAMEEGDVLERTAAHLLFRALEDERWKASARRLAEAFPELSLAWEEVSFAAFQEGKGEEAKEALLKALALRPDYWLYWTNLGWAYYLTGDLPRAIQASERAVALSPNATAYYNLGLFKAIYGDFLGAKAAYDRALRLDQGEDYPEALKDLEEREEPLALFFRAYLAERTGLEAEPLYRAFLEAYPRHPAAFAARRALATLKAGGLSLEVERLTLVPGGPDARPFRAGEAIFPEVRLEGRPYLRQASLFTALYREGRKVAEEEKPVGFPPLTVALLEVAPPVVPEAPGRYRLEVRYAEARAVLDLEVGAPSLARRLFALGLEVRDLSGRPLLTPKEALGEDGERLLLERAREALMEAAPLATTERLTQPLEKGPVAGRSVQEVLRDPDPEILRAFFQAVLENPERLAETDVVNAFVNWLLEP”, with “failed”; and “MYPSSSPGHRQYFLGVKSSLPLLWLMVFPALIGGVLNINPVQAQGTPYIPPPITPPPLSPSENPFDPSLFPTDPLIPSGETLTPLQRRRLIEALDALEAEALVLDQAGQGDQAFEVRYRSLRGRQRLGDLAEVEALGRIGAIAWEQGRNQDVMAIGQRLEDLQLSLTKDKAMSPELLTAFAKAYGQLHSLDSAIAVYQQMRREAQQQGDYRRENQALSMLGELYLAKFNYPAAAEVYETLLARATNARNSYYEGIYLQKLGEIYQQSAQPDNAIRIKEQLVQRRLQDGKPELVPDIQIAIGDHYLELEQPENASQAYQKAYTLAWSIKQLSTAAIALDKLGDLYLFSEQPNYALQIYKQLLQVQQQSYNYYGMMITYEKIAQLYIDAQQTSAALTAYQQALSLARSLKYSTKENNILNQIQTISGGTGS”, with “failed”; and “MFQYRFKRSFSSDPNLSDTIGDRLFDLMEATFPGLNDLAECGRKLGAPWEKASTPFIRFHDDVAITHVGVLEIPMVILGQRVTVGGIHGVATREEFRRRGYYREVMEEALEYCDQIYETLVLTTPEPEYYLPFGFRVVEEYIFH”, with “failed”. For “MNHLISVGALESFLVAISVLFLGHFINAKLPILKKFNIPEPIVGGLIVACIITALHFNGVDLEFDLPLQNTFMLMFFATVGLAANYTQLMKGGAKVFIFLAVASFYIIIQNGVGVSLAAALGLDPLMGLIAGSITLSGGHGTGAAWSQTFQDVYGLNNVLEIAMASATFGLIIGGIIGSPVAQRLVEKHGIESEYGRGGRDAKTHEKFPELVTYNEYEEDKVTAKKVVEKLFFLLICVTGAKYVEQWVSTYEISWLMIPDFVYALFIGVIITNFLEVTKIRKLDAETVDMLGTVSLSLFLAMALMSLKLWNIFDLAIPFLVILAIQSVILAIFTYYVTFKVMGSNYDAAVISGGHCGFGLGATPTAVMNMGSIVNRFGPSPQAFMVVPIVGAFFIDIVNLIILQGYISFLG”, the protein production result is “failed”.
